Data taken from PMC3513567 (Molecular cell, 2012).
Changes are numbered by the printed parent chain. Each block holds one molecule with its values, some of them ahead of it.

What was measured:
[1] = target: truncated murine LEP-R construct (D1-D5) lacking the two membrane-proximal FnIII domains (murine); assay: ITC
[2] = target: T1, extracellular region (domains D1-D7) of murine LEP-R (murine, UniProt P48356 22-839); assay: ITC
T1 sequence (looked up): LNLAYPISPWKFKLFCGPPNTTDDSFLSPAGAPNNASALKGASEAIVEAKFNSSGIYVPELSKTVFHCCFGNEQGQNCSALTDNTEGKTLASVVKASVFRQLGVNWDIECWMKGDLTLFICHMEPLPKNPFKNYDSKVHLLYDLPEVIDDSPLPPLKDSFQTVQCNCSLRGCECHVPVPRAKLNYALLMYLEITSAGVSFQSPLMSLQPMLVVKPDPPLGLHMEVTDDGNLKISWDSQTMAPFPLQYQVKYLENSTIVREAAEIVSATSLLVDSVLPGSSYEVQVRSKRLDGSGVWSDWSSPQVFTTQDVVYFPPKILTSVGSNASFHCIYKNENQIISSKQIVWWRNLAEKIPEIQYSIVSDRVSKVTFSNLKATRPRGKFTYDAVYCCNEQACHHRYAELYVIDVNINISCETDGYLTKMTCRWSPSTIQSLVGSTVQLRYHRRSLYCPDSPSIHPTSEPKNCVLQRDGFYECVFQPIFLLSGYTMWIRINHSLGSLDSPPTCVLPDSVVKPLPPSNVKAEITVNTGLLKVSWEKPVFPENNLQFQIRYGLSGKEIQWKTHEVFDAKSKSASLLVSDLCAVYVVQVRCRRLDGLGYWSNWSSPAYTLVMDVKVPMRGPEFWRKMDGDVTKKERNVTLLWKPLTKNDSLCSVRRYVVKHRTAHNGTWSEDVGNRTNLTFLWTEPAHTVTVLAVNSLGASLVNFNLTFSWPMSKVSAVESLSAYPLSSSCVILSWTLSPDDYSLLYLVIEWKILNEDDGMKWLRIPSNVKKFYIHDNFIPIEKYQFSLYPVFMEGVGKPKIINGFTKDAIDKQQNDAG

[3] = target: T2, LEP-R[D1-D7] construct bearing the IgD mutation L370A (murine, UniProt P48356 22-839, L370A); assay: negative-stain single-particle electron microscopy
T2 sequence (looked up): T1 sequence (looked up) with L349A

Chain of truncated murine LEP-R construct (D1-D5) lacking the two membrane-proximal FnIII domains (murine) (P48356 whole entry, the tested form may be a part): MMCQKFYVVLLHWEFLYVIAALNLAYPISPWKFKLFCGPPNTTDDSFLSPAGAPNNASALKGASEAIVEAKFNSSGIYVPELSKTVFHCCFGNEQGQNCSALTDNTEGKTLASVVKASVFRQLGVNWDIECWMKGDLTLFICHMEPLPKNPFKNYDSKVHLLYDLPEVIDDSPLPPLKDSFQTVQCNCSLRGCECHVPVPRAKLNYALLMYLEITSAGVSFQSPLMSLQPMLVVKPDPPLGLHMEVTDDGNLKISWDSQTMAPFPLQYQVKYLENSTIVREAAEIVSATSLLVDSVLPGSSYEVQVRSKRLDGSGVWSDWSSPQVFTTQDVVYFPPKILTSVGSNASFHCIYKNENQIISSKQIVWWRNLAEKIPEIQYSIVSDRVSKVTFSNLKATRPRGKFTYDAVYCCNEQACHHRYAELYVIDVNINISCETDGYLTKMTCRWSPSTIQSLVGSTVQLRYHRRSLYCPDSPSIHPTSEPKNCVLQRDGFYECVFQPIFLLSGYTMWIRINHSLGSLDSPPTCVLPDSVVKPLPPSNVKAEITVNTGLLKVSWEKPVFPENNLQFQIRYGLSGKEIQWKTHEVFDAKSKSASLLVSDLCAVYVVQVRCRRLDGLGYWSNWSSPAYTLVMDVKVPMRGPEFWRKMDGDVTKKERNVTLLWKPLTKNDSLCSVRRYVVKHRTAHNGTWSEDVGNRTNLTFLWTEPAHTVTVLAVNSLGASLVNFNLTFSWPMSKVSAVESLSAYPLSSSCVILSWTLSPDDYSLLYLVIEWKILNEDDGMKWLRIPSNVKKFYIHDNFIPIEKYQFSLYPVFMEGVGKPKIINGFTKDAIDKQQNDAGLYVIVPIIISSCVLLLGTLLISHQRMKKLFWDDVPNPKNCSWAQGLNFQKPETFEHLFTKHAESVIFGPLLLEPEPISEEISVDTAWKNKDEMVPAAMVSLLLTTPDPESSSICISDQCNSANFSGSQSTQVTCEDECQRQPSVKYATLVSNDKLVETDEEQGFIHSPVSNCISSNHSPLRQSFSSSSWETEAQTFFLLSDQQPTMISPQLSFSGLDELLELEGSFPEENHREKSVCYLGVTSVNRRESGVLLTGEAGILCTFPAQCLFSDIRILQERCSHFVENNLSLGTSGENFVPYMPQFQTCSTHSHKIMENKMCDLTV

- Kd [1]: 17 nM
- stoichiometry N (receptor:ligand) [1]: 1
Molecule: recombinant murine leptin (from UniProt P41160 22-167) (ligand)

- stoichiometry N [2]: ~1 receptor:ligand
- binding result [3]: binds
B1: recombinant murine leptin (ligand, UniProt P41160 22-167, looked up)
chain: VPIQKVQDDTKTLIKTIVTRINDISHTQSVSAKQRVTGLDFIPGLHPILSLSKMDQTLAVYQQVLTSLPSQNVLQIANDLENLRDLLHLLAFSKSCSLPQTSGLQKPESLDGVLEASLYSTEVVALSRLQGSLQDILQQLDVSPEC
